# Data from the DeepSol protein solubility set.
# Test: soluble on expression in E. coli; label from the status in PepcDB or PDB records
row,Sequence,soluble on expression in E. coli
1,MKKAKLGKSDLQVFPIGLGTNAVGGHNLYPNLNEETGKELVREAIRNGVTMLDTAYIYGIGRSEELIGEVLREFNREDVVIATKAAHRKQGNDFVFDNSPDFLKKSVDESLKRLNTDYIDLFYIHFPDEHTPKDEAVNALNEMKKAGKIRSIGVSNFSLEQLKEANKDGLVDVLQGEYNLLNREAEKTFFPYTKEHNISFIPYFPLVSGLLAGKYTEDTTFPEGDLRNEQEHFKGERFKENIRKVNKLAPIAEKHNVDIPHIVLAWYLARPEIDILIPGAKRADQLIDNIKTADVTLSQEDISFIDKLFAPG,soluble
2,MTNQNLQDFLDGVLLKEENLNKITEVSLEKGLPHLLDEGIHNEDNFQIFTSQKIVADMIKMVGVKEMKNVHTTVLEPTSGDGAFTCAILDLRLKNIKKSDSFLKEALTGLSTIYSVEIDEELVWLQRNNLYSIFLAFLKKHGIFNEELSLLVKKILMINVSWGELITETKDNENFVCNYDYFLRNKKTKKKPAKHKHEFPEGLFSNGEGKCKSLFVNWSFADVINEIAHNSNFYFAKIAKIPGEIIQFQIN,not soluble
3,MMYQVKGYFSSLKGSYYEIGKQQGEFVKQNPYLIPQFIHEENVISNNHWTESRNILNKHCPGINEEIEGFCEVLKIPSKNMMYYYQTLLKAGCSHCAVLPKKTDLEHTYVLRNYDLSPVIDDMRFCSTHVEGAYAHSGFSTQYFGRTEGINEHGLAVTFSACGQPVGNIAGLRKPMVSGLQCFAVIRLLLEKCKNVQEAKLLIEEIPIASNINLIIADPLNAAYIEIFDGHKSTITIDGEKQAFIVSTNHAVSSSIQKLNNRKLEQSTKRYHLLHEHLNRCEQVSIESLKKLVEEEYPAGLTVHNYEEWFGTLHSVLFDLHDRTMKICFGSPLLNDWYSLKVGGSMPFSEVNVNFKNKTYTDFWKEDKNELIPKRLEHHHHHH,soluble
4,MSLKRAIIIGATSGIGKEVAQRLLSEGWQIGIAGRRQSALEEFRQIAPEQIKIQSLDVTQEYSAGKLDALIHQLGGMDLFLLSSGIGFQNMELNMEIELNTARTNVEGFTRMVDTAFSYFRNNGGGHLAVISSIAGTKGLGVAPAYSATKRFQNTYIDALEQLSHLQKLDIHFTDIRPGFVATDLLNDGKHYPMLMKTDQVGRDIVRALHRKQRVAIIDGRYRILVFFWRMIPRWIWKRLPVKTEGHHHHHH,soluble
5,MEDDMSVVDNIRFTFLYIEFYSMGRTWVYPESVIPYSIFRYIEKGKAELCIDGEEIIVEENQIVYIPQGCKMSCRALGESFEFYSLRFTTSVFYEGEDMLAEYYGIPRVSVNEGEDVYFKEIYKWVKKDSMVKKCFVRGNLDLLIGSLAMHGNKVDKVTGDFVETIEEKSLRDRNSKKNEQIDPRIYIVADYIILHPSEKYTPQKMAEMADLSKQRFSSLFKINMGKTPMEYVREIRLTTAARALLVSNDNINDIAYACGYEDTNYFIREFKSAFGFTPNQYRKVARE,not soluble
6,MMVDTGVDHRAVSSHDGPDAGRRVFGAADPRFACVVRAFASMFPGRRFGGGALAVYLDGQPVVDVWKGWADRAGWVPWSADSAPMVFSATKGMTATVIHRLADRGLIDYEAPVAEYWPAFGANGKATLTVRDVMRHQAGLSGLRGATQQDLLDHVVMEERLAAAVPGRLLGKSAYHALTFGWLMSGLARAVTGKDMRLLFREELAEPLDTDGLHLGRPPADAPTRVAEIIMPQDIAANAVLTCAMRRLAHRFSGGFRSMYFPGAIAAVQGEAPLLDAEIPAANGVATARALARMYGAIANGGEIDGIRFLSRELVTGLTRNRRQVLPDRNLLVPLNFHLGYHGMPIGNVMPGFGHVGLGGSIGWTDPETGVAFALVHNRLLSPLEHHHHHH,not soluble
7,SFKKFDEKENVSNCIQLKTSVIKGIKNQLLEQFPGIEPWLNQIMPKKDPVKIVRCHEHIEILTVNGELLFFRQREGPFYPTLRLLHKYPFILPHQQVDKGAIKFVLSGANIMCPGLTSPGAKLYPAAVDTIVAIMAEGKQHALCVGVMKMSAEDIEKVNKGIGIENIHYLNDGLWHMKTYK,soluble
8,MAHHHHHHMGTLEAQTQGPGSMGSLSTSISSITTNTTNLGNSTAAALGGGATYDPATGAISAPSYTTYNANGTTATNTSVGAAIDNINANGIKYFHANSTDPDSVATGTNSVAIGPNAVANVDYSVAIGSGATTSAAVPVASASVGGLTFGGFAGSAPIGVFSVGAPGAERQITNVAAGRISAASTDAVNGSQLYATNSN,soluble
9,MTFYDHLHASPYTWERVGNLLADATAADVERSLAYRRRTIQDFITLISPAAIPYLEQMARQAHALTVERFGHTMQLYIPLYLSNICSNACVYCGFSRSNKIHRRRLTAEEVDREAEAILRLGYKHLLLVSGESEKATPASYYEKMTRRLRPLFSQLSLEVQPLTTEEYARLHEAGIGAVYVYQETYNEQAYPTYHPAGRKADYRYRLETPDRIGRANMQKIGIGALLGLENWRVDSVFTALHLRYLEQTYWKSKFSISLPRLRPATGGWEPKDPIDDVGMVQLITAFRLLDKDVEISLSTRESREFRDHVMPLGITSVSAGSKTEPGGYAEENADLEQFAINDARSPAEMAADLRRLGYEPVWKDWDAFM,not soluble
10,MIDLRKLTEVQRRLSRKIVEKPIDIAKVKRVGAVDVSYKNNFAKAAFVCVEFPSGEIIKTKTIVTTVEFPYIPTFFFLRETKPILLAVKDENFDVLLVEGHGKAHPRRYGLASHIGVILSKPTIGVAKRLLRGVSKDTYVKVGKAFVSVGNLITLNDAVRIVEKLLDENGYPKPLNIADKLSKRGESREKELEHHHHHH,not soluble
11,MGSDKIHHHHHHMGGCCSQEGCNTRPRYLPLKCYPGLPMRATRRLDLSAVERALREVQGRFAELSQHFTEPRDPFTDEVLLNVVEGYALIDDYVARGIDLFDLQQLNLMLEINATVLCGSDPARRLEFAPHLAATEAHFFNNVEGGIKDLYNWYCAYRSDSIWKRAAGVYVRILSKPQLFIEGNNRTGSLIVSYLLMRAGLPPFVLSLDNAEGYFNPSSVIRNSAKHGVKALYELPKIKKKYAAFLEAKAPEPGKFFLNGTPVPACEGSR,not soluble
12,MGSDKIHHHHHHMAEGSSSSSLTRLMSILDIFTETRPEWSSDDMMTELGYPRPTLYRYLKVLTDAGMLASNGHGIYTLGPKVVEMDHLLRLSDRLVAIGRPVVAQLTEQYACTAFLVRWYRNRLLCMHSETSLEAPLSSYPRGRVMPMNRGAIARTILAHLQSRKARKIIESFAPEGPEDARKAYIAEQAAALRSVRRNGYAIAFGEVTPGVVGVASPIFDEAAEPAGALCMTMRQEDCPHELRTLITQAVPAAANSITVTLRQSRHTGTDHTHLPLQEEVKDR,not soluble
13,MLKHKIINLIQEKREGSYWDFKAEYHKDKAELLHDIICLSNNLLNQEAYLILGVADNGHILGVAGDSNRKNQEELISFITGKKFAAGRHPKISLMTFEYEEKEIDVIIINPKGYVPYYLERAETDQKSKKNKTVNAGSIYTRVEDKNTPIDSTASPLDTEILWKMHFGLYPTPIKRLQNYLLTPEKWMQNSTGYFHSESPEYIVYKNEDIEEKENYFNLVSPFYAYNQINSNTLYSYYEFKYHSTVLYGCRCISLDSGIYTTPVPELGEINFNMHRDDTIYYRYFIEETMLYNIHLFMYKGDSMEEKFAMDKFLECVLVYKSDVEKELFENYILDNWDKVNQSINENNKRVFGTEHLSQLEKEDITKKVKTVKVLKDELENFRTLEHHHHHH,not soluble
14,MGSDKIHHHHHHMGKTIAIMQPYFLPYIGYWQLMKASDIFVVYDNIKYTKKGWVNRNRYLSNGKIKLFSIPLMKASNSLQIKDRYLAETYKLESAKTLRKIKDAYAVSKNFHPCFNLIERCFNANENNLFEFIYNSVAIFKDVLGLRAQLVVSSSIACDHSLNSAERVKAICTELGAESYINPVGGEHLYERDDFQKLGINLRFLKPRIEEYPQLSCQFQPYMSILDICMSCTFDEVKNNII,not soluble
